Results on 12 molecules are retold here after US20190002562A1 (INTERVET, published 2019).

As usually defined, the EC50 (read off the curve) is the concentration giving half of the maximal effect. Read a low EC50 (read off the curve) as higher potency in that assay. Broadly, the Kd is the concentration at which binding is half-saturated. High values mean lower affinity, low ones higher affinity. In general, koff refers to the first-order rate constant of dissociation. Higher therefore signals a short-lived complex. By kon is commonly meant the rate constant with which the complex forms.

Positions count from the first letter of the chain named. Bounds are passed on as bounds.

Test [1] has as its target T1, recombinant human CD64 protein (R&D systems) (human, UniProt P12314 16-288).
T1 construct: Bought protein; also called FcγRI; FcRγI
Briefly: ELISA: antibody titrated on coated PD-1 HIS, then recombinant human CD64 at 1 ug/mL, biotinylated anti-CD64 and streptavidin-HRP. The procedure:
(§1) Binding to FcRγI is a measure of the ability of an antibody to mediate ADCC. In order to assess this property for the caninized antibodies an assay to measure binding of caninized antibodies to FcγRI was conducted as follows: Coat 96-well plates with 100 μl per well of 2.5 μg/mL PD-1 HIS. Incubate at 2-7° C. overnight. Equilibrate the plates to room temp for 15 minutes. Wash plates 3× with phosphate buffered saline containing 0.05% Tween® 20 (PBST) and then block the wells using 200 μL/well of 5% NFDM (Non Fat Dried Milk). Incubate for 60 minutes at 36-38° C. Wash 3× with PBST. Make 2-fold dilution of antibodies starting at 1 μg/mL in 5% NFDM. Add 100 μL/well of diluted antibodies. Incubate for 60 minutes at 36-38° C. Wash 6× with PBST. Add 100 μL/well of recombinant human CD64 protein (R&D systems) diluted to 1 μg/mL. Incubate for 60 minutes at 36-38° C. Wash 6× with PBST. Add 100 μL/well biotinylated-anti-CD64 antibody (R&D systems) diluted to 1:3000. Incubate for 60 minutes at 36-38° C. Wash 6× with PBST. Add 100 μL/well Streptavidin-HRP antibody (R&D systems) diluted to 1:7500. Incubate for 60 minutes at 36-38° C. Wash 6× with PBST. Add 100 μL/well TMB substrate. Incubate for 10 minutes at 15-30° C. Read plates using ELISA plate reader at 450-540 nm.
On the technique in general: In an ELISA, binding on a coated surface is turned into a signal by an enzyme label.

Test [2] concerns the target T2, HIS-tagged canine PD-1 ECD protein (canine).
T2 construct: also called PD-1 HIS; canine PD-1 ECD-HIS tagged protein; not shown: HIS tag
T2 chain: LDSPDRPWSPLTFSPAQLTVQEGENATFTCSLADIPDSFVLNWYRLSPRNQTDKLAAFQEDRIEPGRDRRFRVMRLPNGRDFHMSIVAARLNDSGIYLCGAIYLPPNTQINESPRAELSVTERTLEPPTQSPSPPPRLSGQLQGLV
Briefly: ELISA on the extracellular domain of canine PD-1.

Test [3] has as its target T1, recombinant human CD64 protein (R&D …). Briefly: ELISA: antibody captured on PD-1 HIS, recombinant human CD64 added. The protocol:
as §1

In test [4] the target is T3, canine PD-1 (canine).
T3 construct: also called canine PD-1 antigen; cPD-1
T3 chain: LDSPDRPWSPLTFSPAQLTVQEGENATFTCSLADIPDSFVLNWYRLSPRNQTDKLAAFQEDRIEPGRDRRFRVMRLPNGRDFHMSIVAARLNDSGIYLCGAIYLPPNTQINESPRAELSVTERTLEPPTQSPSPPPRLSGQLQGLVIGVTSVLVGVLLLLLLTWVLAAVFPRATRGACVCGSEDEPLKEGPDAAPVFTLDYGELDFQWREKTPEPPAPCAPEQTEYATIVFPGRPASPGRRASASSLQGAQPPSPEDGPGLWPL
The test can be described thus: SPR (Biacore T200), canine PD-1 amine-coupled, antibody as analyte, 1:1 fit. A general note: SPR reads the build-up and loss of mass on a sensor chip optically.

Test [5] concerns the target T3, canine PD-1. The test can be described thus: SPR (Biacore T200), canine PD-1 amine-coupled, antibody as analyte, 1:1 fit; off-rate below the detection limit.

T1 sequence (P12314 16-288 limits assumed): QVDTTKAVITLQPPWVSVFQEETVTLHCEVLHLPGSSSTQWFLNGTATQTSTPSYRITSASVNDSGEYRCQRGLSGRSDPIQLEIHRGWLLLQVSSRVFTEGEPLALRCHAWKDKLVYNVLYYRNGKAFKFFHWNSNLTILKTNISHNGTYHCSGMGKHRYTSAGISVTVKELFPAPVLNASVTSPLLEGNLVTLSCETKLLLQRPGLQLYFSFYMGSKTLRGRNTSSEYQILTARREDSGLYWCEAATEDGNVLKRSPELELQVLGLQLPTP

B1: can2H9 VH4/VL3 IgGB (antibody)
heavy: EVQLVQSGGDLVKPGGSVRLSCVASGFNIKNTYMHWVRQAPGKGLQWIGRIAPANVDTKYAPKFQGKATISADTAKNTAYMQLNSLRAEDTAVYYCVLIYYDYDGDIDVWGQGTLVTVSSASTTAPSVFPLAPSCGSTSGSTVALACLVSGYFPEPVTVSWNSGSLTSGVHTFPSVLQSSGLYSLSSMVTVPSSRWPSETFTCNVAHPASKTKVDKPVPKRENGRVPRPPDCPKCPAPEMLGGPSVFIFPPKPKDTLLIARTPEVTCVVVDLDPEDPEVQISWFVDGKQMQTAKTQPREEQFNGTYRVVSVLPIGHQDWLKGKQFTCKVNNKALPSPIERTISKARGQAHQPSVYVLPPSREELSKNTVSLTCLIKDFFPPDIDVEWQSNGQQEPESKYRTTPPQLDEDGSYFLYSKLSVDKSRWQRGDTFICAVMHEALHNHYTQESLSHSPGK
light: DIVMTQTPLSLSVSLGEPASISCHASQNINVWLSWYRQKPGQIPQLLIYKASHLHTGVPDRFSGSGSGTDFTLRISRVEADDAGVYYCQQGQSWPLTFGQGTKVEIKRNDAQPAVYLFQPSPDQLHTGSASVVCLLNSFYPKDINVKWKVDGVIQDTGIQESVTEQDSKDSTYSLSSTLTMSSTEYLSHELYSCEITHKSLPSTLIKSFQRSECQRVD
notes: also called 2H9 VH4 IgGB/VL3; caninized 2H9 with un-modified IgGB Fc
For the molecule B1, the binding result in test [1] is “binds”.

B2: can2H9 IgGD VH4/VL3 (antibody)
heavy chain: EVQLVQSGGDLVKPGGSVRLSCVASGFNIKNTYMHWVRQAPGKGLQWIGRIAPANVDTKYAPKFQGKATISADTAKNTAYMQLNSLRAEDTAVYYCVLIYYDYDGDIDVWGQGTLVTVSSASTTAPSVFPLAPSCGSTSGSTVALACLVSGYFPEPVTVSWNSGSLTSGVHTFPSVLQSSGLYSLSSTVTVPSSRWPSETFTCNVVHPASNTKVDKPVPKESTCKCISPCPVPESLGGPSVFIFPPKPKDILRITRTPEITCVVLDLGREDPEVQISWFVDGKEVHTAKTQPREQQFNSTYRVVSVLPIEHQDWLTGKEFKCRVNHIGLPSPIERTISKARGQAHQPSVYVLPPSPKELSSSDTVTLTCLIKDFFPPEIDVEWQSNGQPEPESKYHTTAPQLDEDGSYFLYSKLSVDKSRWQQGDTFTCAVMHEALQNHYTDLSLSHSPGK
light chain: B1 light
notes: also called can2H9 VH4 IgGD/VL3
In the case of B2, in test [1], the binding result is “no binding (tested: log(nM) about 0.83 (1 ug/mL))”.

B3: can2H9 ADCC (1062) VH4/VL3 (antibody)
heavy: B1 heavy with D271A, N303A
light: B1 light
notes: also called YZZ1062
Regarding B3, in test [2], the 50% effective concentration (EC50 (read off the curve)) was roughly 0.3 nM. Also, in test [3], the binding result is on record as “no binding”.

B4: can2H9 ADCC(1060) VH4/VL3 (antibody)
heavy: B1 heavy with A333G
light: B1 light
notes: also called YZZ1060
As to B4, the binding result in test [1] is recorded as “binds”.

B5: can2H9 ADCC (1061) VH4/VL3 (antibody)
heavy: B1 heavy with P335A
light: B1 light
notes: also called can2H9 VH4 IgGB ADCC (1061)/VL3; YZZ1061
B5: the binding result in test [1] is recorded as “binds”.

B6: can2H9 ADCC(1059) VH4/VL3 (antibody)
heavy: B1 heavy with P244A
light: B1 light
notes: also called can2H9 VH4 IgGB ADCC(1059)/VL3; YZZ1059
Consider B6, for which the binding result in test [1] is “binds”.

B7: can 2H9 IgGB ADCC (1068) VH4/VL3 (antibody)
heavy: B1 heavy with P244A, D271A, N303A, A333G, P335A
light: B1 light
notes: also called can2H9 VH4 IgGB ADCC (1068)/VL3; YZZ1068
With B7, in test [3], the binding result is “no binding”.

B8: can2H9 ADCC mut-1 VH4/VL3 (antibody)
heavy: B1 heavy with D271A
light: B1 light
notes: also called can2H9VH4 IgGB ADCC (mut-1)/VL3; YZZ1057/Mut-1
As for B8, in test [3], the binding result is “binds”.

B9: can2H9 ADCC mut-2 VH4/VL3 (antibody)
heavy: B1 heavy with N303A
light: B1 light
notes: also called can2H9 VH4 IgGB ADCC (mut-2)/VL3; YZZ1058/Mut-2
Take B9: the binding result in test [3] is given as “binds”.

B10: 3B6 VH3 IgGB / VL3 (antibody, V domains shown)
VH: EVQLVQSGGDLVKPGGSVRLSCVASGYTFTTYGMSWVRQAPGKGLQWMGWINIYSGIPTYADDFKGRFTFSLDTAKNTAYLQLNSLRAEDTAVYYCTRFDGPDYWGQGTLVTVSS
VL: DIVMTQTPLSLSVSPGEPASMSCKSSQSLLNSVNQKNYLAWYRQKPGQSPQVLVYFASARVSGVPDRFIGSGSGTDFTLRISRVEADDLGVYYCQQYFSTPLTFGQGTKLELKR
notes: copies: 2 + 2
On to B10, for which the “EC50 (read off the curve)” value in test [2] is roughly 0.1 nM.

B11: Murine 3B6 (antibody, V domains shown)
VH: QIQLVQSGPELKKPGETVKISCKASGYTFTTYGMSWVKQAPGKGLKWMGWINIYSGIPTYADDFKGRFAFSLETSASTAYLQIDNLKNEDTATYFCARFDGPDYWGQGTTLTVSS
VL: DIVMTQSPSSLAVSVGRKVTMSCKSSQSLLNSVNQKNYLAWYQQKPGQSPKVLVYFASARVSGVPDRFIGSGSGTDFTLAISSVQAEDLTTYFCQQYFSTPLTFGAGTKLELK
In the test with canine PD-1 [4], B11 gave a Kd of 2 nM, a koff of 3.4e-05 s⁻¹ and an association rate constant (kon) of 18000 M⁻¹ s⁻¹.

B12: Murine 2H9 (antibody, V domains shown)
VH: EVQLQQSVAELVRPGASVKLSCTASGFNIKNTYMHWIKQRPEQGLEWIGRIAPANVDTKYAPKFQGKATITADTSSNTAYMQLSTLTSEDTAIYYCVLIYYDYDGDIDVWGTGTTVTVSS
VL: DIQMNQSPSSLSASLGDTITITCHASQNINVWLSWYQQRPGNIPKLLIYKASHLHTGVPSRFSGSGSGTGFTLTISSLQPEDIATYYCQQGQSWPLTFGAGTKLELK
In the test with canine PD-1 [5], B12 came in with a dissociation constant Kd of no more than 0.2 nM and a koff of no more than 5e-06 s⁻¹. In the test with canine PD-1 [4], this molecule yielded a kon of 23000 M⁻¹ s⁻¹.
